Key:
[1] = target: recombinant human CD3ε/δ heterodimer (human) (UniProt P07766); assay: ELISA, coated CD3ε/δ
[2] = target: recombinant cynomolgus monkey CD3ε/δ heterodimer (cynomolgus monkey) (UniProt Q95LI5); assay: ELISA, coated CD3ε/δ
[3] = target: recombinant human CD3ε/δ heterodimer (human) (UniProt P07766); assay: BLI (Octet), antigen on anti-Penta His sensor, antibody 50 nM
[4] = target: recombinant cynomolgus monkey CD3ε/δ heterodimer (cynomolgus monkey) (UniProt Q95LI5); assay: as above

Chain of recombinant human CD3ε/δ heterodimer (human) (P07766 23-126, stated change not applied, chain 1 of 2): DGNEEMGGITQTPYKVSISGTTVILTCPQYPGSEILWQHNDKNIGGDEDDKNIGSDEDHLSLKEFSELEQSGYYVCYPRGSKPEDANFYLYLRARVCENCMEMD
Chain of recombinant human CD3ε/δ heterodimer (human) (P04234 22-105, stated change not applied, chain 2 of 2, further chain): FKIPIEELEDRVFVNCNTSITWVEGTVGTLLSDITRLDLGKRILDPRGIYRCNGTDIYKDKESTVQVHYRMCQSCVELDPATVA
Chain of recombinant cynomolgus monkey CD3ε/δ heterodimer (cynomolgus monkey) (Q95LI5 22-117, stated change not applied, chain 1 of 2): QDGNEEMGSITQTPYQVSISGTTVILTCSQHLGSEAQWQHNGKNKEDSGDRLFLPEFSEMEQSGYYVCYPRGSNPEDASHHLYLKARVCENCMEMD
Chain of recombinant cynomolgus monkey CD3ε/δ heterodimer (cynomolgus monkey) (Q95LI8 22-105, stated change not applied, chain 2 of 2, further chain): as the sequence (P04234 22-105, stated change not applied, chain 2 of 2, further chain) above, with I5V, N15K, I20V, S32T, D33N, I34N, T64A, S74N, V83L counted along it

B1: D07 (antibody, human IgG1, lambda, L234A L235A, V domains shown)
VH: EVQLVESGGGLVQPGGSLKLSCAASGFTFNTYAMNWVRQASGKGLEWVGRIRSKYNNYATYYADSVKDRFTISRDDSQSTLYLQMNSLKTEDTAVYYCVRHGNFGNSYVSWFAYWGQGTLVTVSS
VL: QAVVTQEPSLTVSPGGTVTLTCRSSTGAVTTSNYANWFQQKPGQAPRGLIGGTNKRAPWTPARFSGSLLGGKAALTLSGAQPEDEAEYYCALWYSNLWVFGGGTKLTVLG
Absorbance (450 nm) [1]: 1.17 | Absorbance (450 nm) [2]: 2.39 | Kd [3]: 19 nM | koff [3]: 0.00214 s⁻¹ | kon [3]: 113000 M⁻¹ s⁻¹ | Kd [4]: 20 nM | koff [4]: 0.00284 s⁻¹ | kon [4]: 143000 M⁻¹ s⁻¹

B2: E16 (antibody, human IgG1, lambda, L234A L235A, V domains shown)
VH: EVQLVESGGGLVQPGGSLKLSCAASGFTFNTYAMNWVRQASGKGLEWVARIRSKYNNYATYYADSVKDRFTISRDDSKNTAYLQMNSLKTEDTAVYYCVRHGNFGNSYVSWFAYWGQGTLVTVSS
VL: QAVVTQEPSLTVSPGGTVTLTCRSSTGAVTTSNYANWVQQKPGQAPRGLIGGTNKRAPWTPARFSGSLLGDKAALTLSGAQPEDEAEYYCALWYSNLWVFGGGTKLTVLG
Absorbance (450 nm) [1]: 2.4 | Absorbance (450 nm) [2]: 2.74 | Kd [3]: 1.76 nM | koff [3]: 0.000284 s⁻¹ | kon [3]: 162000 M⁻¹ s⁻¹ | Kd [4]: 2.19 nM | koff [4]: 0.000482 s⁻¹ | kon [4]: 220000 M⁻¹ s⁻¹

B3: E15 (antibody, human IgG1, lambda, L234A L235A, V domains shown)
VH: EVQLVESGGGLVQPGGSLKLSCAASGFTFNTYAMNWVRQASGKGLEWVARIRSKYNNYATYYADSVKDRFTISRDDSKNTAYLQMNSLKTEDTAVYYCVRHGNFGNSYVSWFAYWGQGTLVTVSS
VL: QAVVTQEPSLTVSPGGTVTLTCRSSTGAVTTSNYANWVQQKPGQAPRGLIGGTNKRAPWTPARFSGSLLGGKAALTLSGAQPEDEAEYYCALWYSNLWVFGGGTKLTVLG
Absorbance (450 nm) [1]: 2.41 | Absorbance (450 nm) [2]: 2.7 | Kd [3]: 1.74 nM | koff [3]: 0.000392 s⁻¹ | kon [3]: 225000 M⁻¹ s⁻¹ | Kd [4]: 1.86 nM | koff [4]: 0.00054 s⁻¹ | kon [4]: 290000 M⁻¹ s⁻¹

B4: F15 (antibody, human IgG1, lambda, L234A L235A, V domains shown)
VH: EVQLVESGGGLVQPGGSLKLSCAASGFTFNTYAMNWVRQASGKGLEWVARIRSKYNNYATYYADSVKDRFTISRDDSKNTLYLQMNSLKTEDTAVYYCVRHGNFGNSYVSWFAYWGQGTLVTVSS
VL: QAVVTQEPSLTVSPGGTVTLTCRSSTGAVTTSNYANWVQQKPGQAPRGLIGGTNKRAPWTPARFSGSLLGGKAALTLSGAQPEDEAEYYCALWYSNLWVFGGGTKLTVLG
Absorbance (450 nm) [1]: 2.49 | Absorbance (450 nm) [2]: 2.75 | Kd [3]: 1.04 nM | koff [3]: 0.000206 s⁻¹ | kon [3]: 197000 M⁻¹ s⁻¹ | Kd [4]: 1.33 nM | koff [4]: 0.000297 s⁻¹ | kon [4]: 224000 M⁻¹ s⁻¹

B5: G15 (antibody, human IgG1, lambda, L234A L235A, V domains shown)
VH: EVQLVESGGGLVQPGGSLKLSCAASGFTFNTYAMNWVRQASGKGLEWVARIRSKYNNYATYYADSVKDRFTISRDDSQSTAYLQMNSLKTEDTAVYYCVRHGNFGNSYVSWFAYWGQGTLVTVSS
VL: QAVVTQEPSLTVSPGGTVTLTCRSSTGAVTTSNYANWVQQKPGQAPRGLIGGTNKRAPWTPARFSGSLLGGKAALTLSGAQPEDEAEYYCALWYSNLWVFGGGTKLTVLG
Absorbance (450 nm) [1]: 2.42 | Absorbance (450 nm) [2]: 2.69 | Kd [3]: 1.59 nM | koff [3]: 0.000332 s⁻¹ | kon [3]: 209000 M⁻¹ s⁻¹ | Kd [4]: 1.72 nM | koff [4]: 0.000461 s⁻¹ | kon [4]: 269000 M⁻¹ s⁻¹

B6: A08 (antibody, human IgG1, lambda, L234A L235A, V domains shown)
VH: EVQLVESGGGLVQPGGSLKLSCAASGFTFNTYAMNWVRQASGKGLEWVGRIRSKYNNYATYYADSVKDRFTISRDDSKNTAYLQMNSLKTEDTAVYYCVRHGNFGNSYVSWFAYWGQGTLVTVSS
VL: QAVVTQEPSLTVSPGGTVTLTCRSSTGAVTTSNYANWFQQKPGQAPRGLIGGTNKRAPWTPARFSGSLLGDKAALTLSGAQPEDEAEYYCALWYSNLWVFGGGTKLTVLG
Absorbance (450 nm) [1]: 0.875 | Absorbance (450 nm) [2]: 2.34 | Kd [3]: 22.2 nM | koff [3]: 0.00226 s⁻¹ | kon [3]: 102000 M⁻¹ s⁻¹ | Kd [4]: 21.9 nM | koff [4]: 0.00321 s⁻¹ | kon [4]: 147000 M⁻¹ s⁻¹

B7: F16 (antibody, human IgG1, lambda, L234A L235A, V domains shown)
VH: EVQLVESGGGLVQPGGSLKLSCAASGFTFNTYAMNWVRQASGKGLEWVARIRSKYNNYATYYADSVKDRFTISRDDSKNTLYLQMNSLKTEDTAVYYCVRHGNFGNSYVSWFAYWGQGTLVTVSS
VL: QAVVTQEPSLTVSPGGTVTLTCRSSTGAVTTSNYANWVQQKPGQAPRGLIGGTNKRAPWTPARFSGSLLGDKAALTLSGAQPEDEAEYYCALWYSNLWVFGGGTKLTVLG
Absorbance (450 nm) [1]: 2.46 | Absorbance (450 nm) [2]: 2.85 | Kd [3]: 0.852 nM | koff [3]: 0.00012 s⁻¹ | kon [3]: 141000 M⁻¹ s⁻¹ | Kd [4]: 1.37 nM | koff [4]: 0.000253 s⁻¹ | kon [4]: 185000 M⁻¹ s⁻¹

B8: G16 (antibody, human IgG1, lambda, L234A L235A, V domains shown)
VH: EVQLVESGGGLVQPGGSLKLSCAASGFTFNTYAMNWVRQASGKGLEWVARIRSKYNNYATYYADSVKDRFTISRDDSQSTAYLQMNSLKTEDTAVYYCVRHGNFGNSYVSWFAYWGQGTLVTVSS
VL: QAVVTQEPSLTVSPGGTVTLTCRSSTGAVTTSNYANWVQQKPGQAPRGLIGGTNKRAPWTPARFSGSLLGDKAALTLSGAQPEDEAEYYCALWYSNLWVFGGGTKLTVLG
Absorbance (450 nm) [1]: 2.48 | Absorbance (450 nm) [2]: 2.77 | Kd [3]: 1.32 nM | koff [3]: 0.000201 s⁻¹ | kon [3]: 153000 M⁻¹ s⁻¹ | Kd [4]: 1.75 nM | koff [4]: 0.00034 s⁻¹ | kon [4]: 195000 M⁻¹ s⁻¹

B9: D16 (antibody, human IgG1, lambda, L234A L235A, V domains shown)
VH: EVQLVESGGGLVQPGGSLKLSCAASGFTFNTYAMNWVRQASGKGLEWVGRIRSKYNNYATYYADSVKDRFTISRDDSQSTLYLQMNSLKTEDTAVYYCVRHGNFGNSYVSWFAYWGQGTLVTVSS
VL: QAVVTQEPSLTVSPGGTVTLTCRSSTGAVTTSNYANWVQQKPGQAPRGLIGGTNKRAPWTPARFSGSLLGDKAALTLSGAQPEDEAEYYCALWYSNLWVFGGGTKLTVLG
Absorbance (450 nm) [1]: 2.65 | Absorbance (450 nm) [2]: 2.87 | Kd [3]: 0.446 nM | koff [3]: 0.000107 s⁻¹ | kon [3]: 240000 M⁻¹ s⁻¹ | Kd [4]: 0.611 nM | koff [4]: 0.000217 s⁻¹ | kon [4]: 356000 M⁻¹ s⁻¹

B10: D08 (antibody, human IgG1, lambda, L234A L235A, V domains shown)
VH: EVQLVESGGGLVQPGGSLKLSCAASGFTFNTYAMNWVRQASGKGLEWVGRIRSKYNNYATYYADSVKDRFTISRDDSQSTLYLQMNSLKTEDTAVYYCVRHGNFGNSYVSWFAYWGQGTLVTVSS
VL: QAVVTQEPSLTVSPGGTVTLTCRSSTGAVTTSNYANWFQQKPGQAPRGLIGGTNKRAPWTPARFSGSLLGDKAALTLSGAQPEDEAEYYCALWYSNLWVFGGGTKLTVLG
Absorbance (450 nm) [1]: 0.897 | Absorbance (450 nm) [2]: 2.53 | Kd [3]: 35 nM | koff [3]: 0.00287 s⁻¹ | kon [3]: 82000 M⁻¹ s⁻¹ | Kd [4]: 21.6 nM | koff [4]: 0.00266 s⁻¹ | kon [4]: 123000 M⁻¹ s⁻¹

B11: A07 (antibody, human IgG1, lambda, L234A L235A, V domains shown)
VH: EVQLVESGGGLVQPGGSLKLSCAASGFTFNTYAMNWVRQASGKGLEWVGRIRSKYNNYATYYADSVKDRFTISRDDSKNTAYLQMNSLKTEDTAVYYCVRHGNFGNSYVSWFAYWGQGTLVTVSS
VL: QAVVTQEPSLTVSPGGTVTLTCRSSTGAVTTSNYANWFQQKPGQAPRGLIGGTNKRAPWTPARFSGSLLGGKAALTLSGAQPEDEAEYYCALWYSNLWVFGGGTKLTVLG
Absorbance (450 nm) [1]: 1.31 | Absorbance (450 nm) [2]: 2.55 | Kd [3]: 19.5 nM | koff [3]: 0.00232 s⁻¹ | kon [3]: 119000 M⁻¹ s⁻¹ | Kd [4]: 20.5 nM | koff [4]: 0.00315 s⁻¹ | kon [4]: 153000 M⁻¹ s⁻¹

B12: D15 (antibody, human IgG1, lambda, L234A L235A, V domains shown)
VH: EVQLVESGGGLVQPGGSLKLSCAASGFTFNTYAMNWVRQASGKGLEWVGRIRSKYNNYATYYADSVKDRFTISRDDSQSTLYLQMNSLKTEDTAVYYCVRHGNFGNSYVSWFAYWGQGTLVTVSS
VL: QAVVTQEPSLTVSPGGTVTLTCRSSTGAVTTSNYANWVQQKPGQAPRGLIGGTNKRAPWTPARFSGSLLGGKAALTLSGAQPEDEAEYYCALWYSNLWVFGGGTKLTVLG
Absorbance (450 nm) [1]: 2.53 | Absorbance (450 nm) [2]: 3.01 | Kd [3]: 0.294 nM | koff [3]: 9.6e-05 s⁻¹ | kon [3]: 327000 M⁻¹ s⁻¹ | Kd [4]: 0.533 nM | koff [4]: 0.000233 s⁻¹ | kon [4]: 437000 M⁻¹ s⁻¹

B13: H15 (antibody, human IgG1, lambda, L234A L235A, V domains shown)
VH: EVQLVESGGGLVQPGGSLKLSCAASGFTFNTYAMNWVRQASGKGLEWVARIRSKYNNYATYYADSVKDRFTISRDDSQSTLYLQMNSLKTEDTAVYYCVRHGNFGNSYVSWFAYWGQGTLVTVSS
VL: QAVVTQEPSLTVSPGGTVTLTCRSSTGAVTTSNYANWVQQKPGQAPRGLIGGTNKRAPWTPARFSGSLLGGKAALTLSGAQPEDEAEYYCALWYSNLWVFGGGTKLTVLG
Absorbance (450 nm) [1]: 2.44 | Absorbance (450 nm) [2]: 2.84 | Kd [3]: 0.953 nM | koff [3]: 0.000189 s⁻¹ | kon [3]: 199000 M⁻¹ s⁻¹ | Kd [4]: 1.17 nM | koff [4]: 0.000269 s⁻¹ | kon [4]: 230000 M⁻¹ s⁻¹

Source: patent publication US20200317779A1
